Data published in patent US20030072795A1 (US Dept. of Health and Human Services, published 2003).

T1: recombinant human involucrin, P07476
T1 chain: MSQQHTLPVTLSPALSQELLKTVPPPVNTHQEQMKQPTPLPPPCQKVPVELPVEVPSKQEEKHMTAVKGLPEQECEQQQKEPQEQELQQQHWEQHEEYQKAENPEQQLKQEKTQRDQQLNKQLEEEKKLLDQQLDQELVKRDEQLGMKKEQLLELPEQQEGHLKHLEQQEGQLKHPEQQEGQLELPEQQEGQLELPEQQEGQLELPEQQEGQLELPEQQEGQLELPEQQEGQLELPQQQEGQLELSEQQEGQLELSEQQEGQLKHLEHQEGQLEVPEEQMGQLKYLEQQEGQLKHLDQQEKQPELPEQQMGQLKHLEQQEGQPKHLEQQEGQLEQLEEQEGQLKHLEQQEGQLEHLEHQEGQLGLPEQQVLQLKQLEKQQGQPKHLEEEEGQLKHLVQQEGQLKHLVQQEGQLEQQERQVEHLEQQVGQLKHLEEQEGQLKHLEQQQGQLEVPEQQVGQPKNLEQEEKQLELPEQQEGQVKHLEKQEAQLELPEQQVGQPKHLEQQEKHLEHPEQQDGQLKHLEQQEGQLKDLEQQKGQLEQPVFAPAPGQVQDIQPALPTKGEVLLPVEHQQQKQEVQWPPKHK

T2: recombinant full-length human transglutaminase 1 (TGase 1) enzyme (human, UniProt P22735 1-817, constitutively N-myristoylated and S-myristoylated or S-palmitoylated on its amino-terminal 10 kDa portion)
T2 construct: also called TGase I; TGAaseI
T2 sequence (looked up): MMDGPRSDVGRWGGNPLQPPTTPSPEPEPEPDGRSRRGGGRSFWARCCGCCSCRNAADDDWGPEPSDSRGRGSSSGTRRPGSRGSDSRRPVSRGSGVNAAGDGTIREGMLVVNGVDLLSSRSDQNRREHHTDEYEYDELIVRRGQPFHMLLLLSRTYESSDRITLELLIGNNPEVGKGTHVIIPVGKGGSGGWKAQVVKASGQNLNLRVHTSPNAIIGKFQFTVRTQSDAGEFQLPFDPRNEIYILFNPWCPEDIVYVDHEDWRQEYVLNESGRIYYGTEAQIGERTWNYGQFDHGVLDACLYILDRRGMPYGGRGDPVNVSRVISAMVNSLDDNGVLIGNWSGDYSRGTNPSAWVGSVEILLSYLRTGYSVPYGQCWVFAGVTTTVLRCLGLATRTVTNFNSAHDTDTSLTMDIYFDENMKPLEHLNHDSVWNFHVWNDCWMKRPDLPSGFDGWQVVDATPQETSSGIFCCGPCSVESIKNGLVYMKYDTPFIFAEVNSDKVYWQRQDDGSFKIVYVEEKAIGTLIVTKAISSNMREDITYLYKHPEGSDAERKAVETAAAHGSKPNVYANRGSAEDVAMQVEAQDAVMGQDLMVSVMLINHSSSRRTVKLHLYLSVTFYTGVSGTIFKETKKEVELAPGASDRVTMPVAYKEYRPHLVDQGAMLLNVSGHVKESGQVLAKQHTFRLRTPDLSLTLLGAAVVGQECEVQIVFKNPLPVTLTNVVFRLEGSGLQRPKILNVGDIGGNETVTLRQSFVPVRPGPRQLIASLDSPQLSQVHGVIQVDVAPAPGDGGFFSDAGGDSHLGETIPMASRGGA

B1: recombinant full-length human transglutaminase 1 (TGase 1) enzyme (protein)
chain: T2 sequence (looked up)
B2: recombinant human involucrin (other, UniProt P07476 1-585, looked up)
chain: T1 chain
notes: Substrate of TGase 1

Tests used:
[1] = molecular target: T1, recombinant human involucrin, P07476
[2] = molecular target: recombinant human small proline rich protein 2 (SPR2)
[3] = molecular target: T2, recombinant full-length human …; test: 14C-putrescine labelling of involucrin Gln residues by TGase 1, tryptic peptide sequencing
Description: In this first set of experiments, the Gln residues of involucrin that were cross-linked by recombinant TGase 1 were analyzed in the absence of natural insect cell membranes and SLV. ¹⁴C-putrescine incorporation into involucrin was analyzed following trypsin digestion and separation of tryptic peptides on a C18 reverse phase HPLC column. Labeled peptide peaks were dried and identified by sequencing. The PTH derivative of (-glutamylputrescine isopeptide formed in the TGase reaction was identified as a distinct peak in the Porton LP 3000 gas-phase sequencer. (FIG. 7). A total of 40 tryptic peptides were reliably separated, of which 29 (arrows) were labeled by ¹⁴C-putrescine in a reaction with solubilized recombinant TGase 1 and involucrin. (FIG. 8A). Sequencing identified […] labeled Gln residues (Table 2, panel A), with a total of about 20 mol of putrescine incorporated/mol of involucrin (Table 2, panel A). In contrast to the 29 Gln residues found to be involved in the binding of involucrin to soluble TGase 1 in the experiments above, membrane-bound TGase 1 binds to involucrin through five specific Gln residues, as discussed in the following section.

binding result [3]	Binder	KM(app) of the protein substrate; 14C-putrescine incorporation by SLV-bound TGase 1 (15% PS) [1] [µM]	KM(app) of the protein substrate; 14C-putrescine incorporation by solubilized TGase 1 [1] [µM]	fold decrease of KM, SLV with 15% PS against solubilized TGase 1 and soluble involucrin [1]	kinetic parameters for involucrin as substrate, SLV-bound TGase 1 (0% PS) [1]	KM(app) of the protein substrate; 14C-putrescine incorporation by SLV-bound TGase 1 (0% PS) (succinylated casein) [µM]	KM(app) of the protein substrate; 14C-putrescine incorporation by SLV-bound TGase 1 (15% PS) (succinylated casein) [µM]	KM(app) of the protein substrate; 14C-putrescine incorporation by solubilized TGase 1 (succinylated casein) [µM]	KM(app) of the protein substrate; 14C-putrescine incorporation by SLV-bound TGase 1 (0% PS) [2] [µM]	KM(app) of the protein substrate; 14C-putrescine incorporation by SLV-bound TGase 1 (15% PS) [2] [µM]	KM(app) of the protein substrate; 14C-putrescine incorporation by solubilized TGase 1 [2] [µM]	fold increase of KM after attachment of TGase 1 to SLV (0 or 15% PS) [2]
	B1	2.9	114	an approximately 40-fold decreased KM	The kinetic parameters for involucrin as a substrate were immeasurably low when the SLV were formulated in the absence of PS	138	145	61.4	25.3	22.8	13.2	differed only by about a two-fold increase in KM if the PS content of SLV was 0 or 15%
binds	B2											
